This note sets out measurements from patent US20120214173A1, “Methods of Identifying Modulators of an Ehd Polypeptide” (priority 2007, published 2012).

Data set [1] is described as follows: Negative stain EM of liposome tubulation/oligomerisation. Conditions: 2.5 μM protein, PS liposomes. As to the method: (§1) Amino acid numbering corresponds to mouse EHD2. b, EHD2 binds to adenine nucleotides, as determined by ITC. For clarity, ΔΔH=ΔHn−ΔH1 is plotted. […] Images were acquired close to the basal cell surface. f, Nucleotide hydrolysis was measured by HPLC in the absence (empty symbols) or presence of Folch liposomes (filled symbols). Data represent mean and standard deviation for two (intrinisic reactions) or three (stimulated reactions) independent experiments.
EHD2 was incubated with the indicated liposomes in the presence and absence of nucleotides and analysed by EM as described in Methods. a, EHD2 deformed PS liposomes into tubular networks, here in the presence of ATP-γ-S. b, Enlarged views of the indicated area in a. Note the presence of regularly spaced EHD2 rings (some are indicated with arrows). This even spacing may be due to the curvature stress generated by an EHD2 ring along the axis of the lipid tubule which might disfavour binding of the next ring in the direct vicinity (see below). c, Some of the lipid tubules (especially at higher protein concentration) were tightly packed with EHD2 oligomeric rings. d,e In the presence of ADP and in the absence of nucleotide (f,g), EHD2 also tubulated PS liposomes and formed ring-like structures around the tubules. e,g are enlarged views of the indicated areas in d and f, respectively.
Reactions were started by the addition of the protein to the final reaction mix and nucleotide hydrolysis was followed using standard HPLC measurement^27. Initial rates were determined by applying a linear fit to data points up to 40% nucleotide hydrolysis. For electron microscopic studies, 2.5 μM EHD2 in 20 mM HEPES (pH 7.5), 150 mM NaCl, 1 mM MgCl2 was incubated for 15 min at 25° C. in the presence of 1 mM nucleotide and 0.05 mg/ml (final concentration) of the indicated liposomes. Samples were spotted on carbon-coated copper grids (Canemco and Marivac) and negatively stained with 2% uranyl acetate.
Nucleotide-independence of liposome tubulation in vitro is also observed for dynamin^16. No noticeable tubule fission or alteration in tubule diameter was found for EHD2 in the presence of ATP. […] Folch liposomes were also tabulated by EHD2. However, with synthetic liposomes containing only 2.5% PIP2 and in the absence of PS, the amount of EHD binding was reduced, and in this less favourable binding condition we only observed tubulation in the presence of ATP-γ-S and ADP but not in the absence of nucleotides (FIG. 7).

A further data set concerns HeLa cells. In words: Over-expression of EGFP-tagged EHD2 and mutants in HeLa cells (confocal / live imaging). It is filed as cell-based. Conditions: for distribution of EGFP-tagged protein over-expressed in HeLa cells: 24 h after transfection, fixed; for dynamics of tubules and puncta by EPI-fluorescence live imaging: over-expressed 24 h, imaged approximately 30 min.
The next data set has as its target T1, EHD2 (Mus musculus, UniProt Q8BH64).
T1 construct: Mouse EHD2 full-length protein and all mutants were expressed as N-terminal His-fusions followed by a PreScission cleavage site; His (N, cleaved yes); made in house; host or cells: Escherichia coli BL21 DE3 Rosetta
T1 sequence (Q8BH64 1-543): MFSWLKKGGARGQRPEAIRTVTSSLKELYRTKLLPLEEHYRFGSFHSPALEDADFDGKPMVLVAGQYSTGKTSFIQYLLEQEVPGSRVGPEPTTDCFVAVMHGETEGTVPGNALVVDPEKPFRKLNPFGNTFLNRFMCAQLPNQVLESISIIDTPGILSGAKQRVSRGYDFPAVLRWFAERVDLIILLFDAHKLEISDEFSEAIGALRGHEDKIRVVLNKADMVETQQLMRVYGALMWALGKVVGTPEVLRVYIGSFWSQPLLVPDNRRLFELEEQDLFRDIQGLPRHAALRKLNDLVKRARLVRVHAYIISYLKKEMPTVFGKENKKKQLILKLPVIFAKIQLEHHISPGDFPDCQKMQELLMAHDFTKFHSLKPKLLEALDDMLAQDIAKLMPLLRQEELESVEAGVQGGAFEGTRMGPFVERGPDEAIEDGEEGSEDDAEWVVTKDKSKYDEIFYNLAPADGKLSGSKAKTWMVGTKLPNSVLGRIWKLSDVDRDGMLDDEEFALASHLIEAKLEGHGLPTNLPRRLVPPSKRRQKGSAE
Kind of data set: Multiple turnover ATPase assay (nucleotide hydrolysis by HPLC) with or without Folch liposomes. Conditions: for kobs stimulated ATPase reaction: presence of 1 mg/ml Folch (or PS) liposomes. It is filed as biochemical. The method, boiled down: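 10 μM EHD2 with 100 μM ATP in 20 mM HEPES pH 7.5, 135 mM NaCl, 15 mM KCl, 1 mM MgCl2 at 30 °C, with or without 1 mg/ml Folch liposomes. Reactions started by protein addition; hydrolysis tracked by HPLC, initial rates from linear fit up to 40% hydrolysis.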

Data set [2] can be described thus: Liposome co-sedimentation (membrane binding) assay. Conditions: Folch / PS liposomes. As to the method: as §1
Nucleotide hydrolysis was measured as described in FIG. 1f. In vitro tubulation activity of PS liposomes was analysed as described in FIG. 1d. f, EGFP-tagged mutants were over-expressed in HeLa cells. […] For each construct, three independent experiments with ≈50 cells/experiments were analysed.
ITC measurements were performed at 10° C. in 20 mM HEPES (pH 7.5), 300 mM NaCl, 2 mM MgCl2. Liposome binding assays were performed as described previously (www.endocytosis.org). Multiple turnover ATPase assays were performed in 20 mM HEPES (pH 7.5), 135 mM NaCl, 15 mM KCl, 1 mM MgCl2 at 30° C. with 10 μM EHD2 (or mutants) as enzyme and 100 μM ATP as substrate, in the absence or presence of 1 mg/ml Folch liposomes (Sigma-Aldrich).
Mouse full-length EHD2 was expressed in bacteria and purified to homogeneity (FIG. 5). The purified protein was nucleotide-free as judged by HPLC analysis. […] It was previously reported that EHDs—despite having a predicted G-domain—bind to adenine nucleotides^15. […] We still refer to this domain as a G-domain because the sequence and fold (see below) are clearly similar to other G-domains. […] Using synthetic liposomes containing various different phosphatidyl-inositols (PI) (FIG. 1c) we observed best binding to liposomes containing PI(4,5)bisphosphate (PIP2).

Data set [3] has as its target T2, isolated EH-domain of EHD2 (mouse, UniProt Q8BH64 443-543, limits assumed).
T2 construct: domain: EH-domain; ITC buffer contained 200 µM CaCl2
T2 sequence (looked up): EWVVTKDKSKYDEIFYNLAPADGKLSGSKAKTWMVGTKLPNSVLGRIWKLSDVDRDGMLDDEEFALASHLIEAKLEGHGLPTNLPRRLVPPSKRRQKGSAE
Kind of data set: ITC at 10 °C, 100 mM HEPES pH 7.5, 50 mM NaCl, 200 µM CaCl2; peptide against the EH-domain of EHD2.

The target in data set [4] is T2, isolated EH-domain of EHD2. In words: ITC at 10 °C, peptide against the EH-domain of EHD2.
Data set [5] deals with the molecule itself. In words: negative stain EM on PS liposomes.

As usually defined, the Kd is the concentration at which binding is half-saturated. High values mean a looser complex, low ones a tighter complex.

Where a chain is given by its changes, count along the chain named. Names and notes keep the numbering of the source. “Also recorded” adds a separate entry of the source.

For “EHD2: mouse full-length EHD2 expressed in bacteria; EGFP-tagged in HeLa cells”, in data set [1], the “liposome tubulation / oligomerisation by EM” value is “deforms PS liposomes in a nucleotide-independent manner into 20 nm-diameter tubules”. In the data set with HeLa cells, the “distribution of EGFP-tagged protein over-expressed in HeLa cells” value was “localised to puncta and tubular networks close to the cell surface; also recorded: marked punctate and tubular structures”; the “dynamics of tubules and puncta by EPI-fluorescence live imaging” value is “Some of the tubules and puncta are dynamic”. Besides, the “kobs intrinsic/background ATPase activity” value in the data set with EHD2 (10 μM protein, 100 μM ATP, 30° C., absence of liposomes) was determined as 0.7 h⁻¹. Further, the “kobs stimulated ATPase reaction” value with EHD2 (10 μM protein, 100 μM ATP, 30° C.) amounted to 5.6 h⁻¹. Besides, the “kobs stimulated ATPase reaction” value in the data set with EHD2 (10 μM protein, 100 μM ATP, 30° C., listed as wt) turned out to be 5.4 h⁻¹. Also, the “stimulation of intrinsic ATP reaction by liposomes” value in the data set with EHD2 (Folch or PS liposomes versus no liposomes) is given as 8 fold. Further, the “stimulated nucleotide hydrolysis slower than dynamin” value with EHD2 (stimulated condition, versus dynamin GTP hydrolysis) is listed as 600 fold. Further, in data set [2], the “binding to liposomes (co-sedimentation)” value is listed as “efficient binding”.
Consider “EHD2 deletion mutant of the EH-domain (ΔEH)”, for which the “membrane-stimulated ATPase activity” value in the data set on Q8BH64 is “did not show any membrane-stimulated ATPase activity”.
As to KLNPFGNT (also called side site NPF peptide) [peptide 124-KLNPFGNT from EHD2], in data set [3], binding was characterised by a dissociation constant (Kd) of 130 µM.
In the case of RMGPFVER (also called top site GPF peptide) [peptide 418-RMGPFVER from EHD2], in data set [4], the binding result is “no binding”.

B1: EHD2 T94A (enzyme, mouse, UniProt Q8BH64 1-543, looked up)
chain: T1 sequence (Q8BH64 1-543) with T94A
notes: mature; also called T94A mutant
Consider B1, for which, in data set [5], the binding result is listed as “binds”. Further, the “liposome tubulation / oligomerisation by EM” value in data set [1] is recorded as “oligomerised around PS liposomes”. Moreover, in the data set on HeLa cells, the “distribution of EGFP-tagged protein over-expressed in HeLa cells” value is “extensive tubulation with no punctate stained; also recorded: labelled extensive tubular structures with essentially, no punctate staining”; the “dynamics of tubules and puncta by EPI-fluorescence live imaging” value is “only tubules, and these are mostly static”. Besides, the “membrane-stimulated ATPase activity (in words)” value with EHD2 (presence of Folch liposomes) is recorded as “did not show any membrane-stimulated ATPase activity”.
For the molecule PEKPFRKL (also called side site KPF peptide) [peptide 118-PEKPFRKL from EHD2], the binding result in data set [4] is on record as “no binding”.
